Data on one molecule can be found in PMC3186789.

Primed or numbered codes have the meaning given here. The star is where a group is joined. Dabcyl′ = CN(C)c1ccc(/N=N/c2ccc(C(=O)*)cc2)cc1; EDANS = O=S(=O)(O)c1cccc2c(NCCN*)cccc12

The target of the test is T1, Group B Streptococcus recombinant sortase A SrtA_(ΔN40) (Streptococcus agalactiae strain 515 (serotype Ia)) (UniProt Q8DZY1).
T1 sequence: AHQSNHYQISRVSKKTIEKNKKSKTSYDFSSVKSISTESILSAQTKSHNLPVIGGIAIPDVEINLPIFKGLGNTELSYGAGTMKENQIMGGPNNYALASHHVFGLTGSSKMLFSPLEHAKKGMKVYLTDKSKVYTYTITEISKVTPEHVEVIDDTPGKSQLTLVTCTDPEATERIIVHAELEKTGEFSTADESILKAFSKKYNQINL

B1: AP2-2a peptide (Dabcyl-SFLPKTGM-Edans) (peptide)
peptide: {Dabcyl′}-SFLPKTGM-{EDANS}
SMILES: CSCC[C@H](NC(=O)CNC(=O)[C@@H](NC(=O)[C@H](CCCCN)NC(=O)[C@@H]1CCCN1C(=O)[C@H](CC(C)C)NC(=O)[C@H](Cc1ccccc1)NC(=O)[C@H](CO)NC(=O)c1ccc(/N=N/c2ccc(N(C)C)cc2)cc1)[C@@H](C)O)C(=O)NCCNc1cccc2c(S(=O)(=O)O)cccc12
For B1, the apparent Michaelis constant K (m,app) of the transpeptidation reaction (FRET assay, 1-384 µM peptide, 3 µM SrtA (ΔN40), 75 mM triglycine, 37°C, 20 mM HEPES pH 7.5) came to 48.4 µM.
